Experiments:
[1] = molecular target: the molecule itself; assay: EMSA with a 22 bp double-stranded E-box DNA probe. This is an indirect sign: the gel shows DNA binding, and the filing reads the missing shift as missing homodimerisation.
From the text: (§1) The three synthetic analogs 10, 11, and 12 can form non-covalent dimers and bind to the target E-box DNA (5′-[…]-3′). […] However, it is not possible to determine which dimeric species form in a solution containing two different monomers. For instance, upon mixing Max (11) and Omomyc (12), three different dimers (Max/Max, Omomyc/Omomyc and Max/Omomyc) can form and potentially bind to DNA (FIG. 18). To assess the activity of these protein complexes in a reliable manner, access to well-defined covalent protein dimers is critical.

[2] = molecular target: the molecule itself; assay: non-covalent homodimer inferred from EMSA with E-box DNA (Omomyc+Omomyc)
From the text: as §1

B1: Myc analog 10 (synthetic Myc monomer with a C-terminal cysteine) (other)
chain: NVKRRTHNVLERQRRNELKRSFFALRDQIPELENNEKAPKVVILKKATAYILSVQAEEQKLISEEDLLRKRREQLKHKLEQLGGC
notes: also called Myc 10
binding result [1]: no binding

B2: Omomyc analog 12 (synthetic Omomyc monomer with a C-terminal cysteine) (other)
chain: MATEENVKRRTHNVLERQRRNELKRSFFALRDQIPELENNEKAPKVVILKKATAYILSVQAETQKLISEIDLLRKQNEQLKHKLEQLRNSC
notes: Artificial mini-protein; the structure of 12 is in a drawing; also called Omomyc 12; Omomyc (12)
binding result [2]: binds

Source: patent US20240336649A1 (MIT, published 2024)
